Bridge positions count the residues as written; N and C are the ends.
Columns and labels:
[1] = target: T1, native IL-5R a/β complex on TF-1 cells (human, UniProt Q01344 21-420; P32927 17-897); assay: cell-based or functional assay
T1 sequence (looked up) 1: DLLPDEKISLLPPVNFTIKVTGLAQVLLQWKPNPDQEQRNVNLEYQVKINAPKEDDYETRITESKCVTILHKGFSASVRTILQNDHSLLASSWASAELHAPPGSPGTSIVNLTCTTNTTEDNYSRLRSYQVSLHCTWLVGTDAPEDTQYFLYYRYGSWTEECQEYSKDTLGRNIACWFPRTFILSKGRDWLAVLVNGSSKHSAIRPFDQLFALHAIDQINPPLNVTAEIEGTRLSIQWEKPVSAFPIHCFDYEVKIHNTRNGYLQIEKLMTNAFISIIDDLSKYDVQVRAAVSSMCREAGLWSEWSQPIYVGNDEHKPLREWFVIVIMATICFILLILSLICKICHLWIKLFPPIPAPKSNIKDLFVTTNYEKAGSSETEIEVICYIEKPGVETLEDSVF
T1 sequence (looked up) 2: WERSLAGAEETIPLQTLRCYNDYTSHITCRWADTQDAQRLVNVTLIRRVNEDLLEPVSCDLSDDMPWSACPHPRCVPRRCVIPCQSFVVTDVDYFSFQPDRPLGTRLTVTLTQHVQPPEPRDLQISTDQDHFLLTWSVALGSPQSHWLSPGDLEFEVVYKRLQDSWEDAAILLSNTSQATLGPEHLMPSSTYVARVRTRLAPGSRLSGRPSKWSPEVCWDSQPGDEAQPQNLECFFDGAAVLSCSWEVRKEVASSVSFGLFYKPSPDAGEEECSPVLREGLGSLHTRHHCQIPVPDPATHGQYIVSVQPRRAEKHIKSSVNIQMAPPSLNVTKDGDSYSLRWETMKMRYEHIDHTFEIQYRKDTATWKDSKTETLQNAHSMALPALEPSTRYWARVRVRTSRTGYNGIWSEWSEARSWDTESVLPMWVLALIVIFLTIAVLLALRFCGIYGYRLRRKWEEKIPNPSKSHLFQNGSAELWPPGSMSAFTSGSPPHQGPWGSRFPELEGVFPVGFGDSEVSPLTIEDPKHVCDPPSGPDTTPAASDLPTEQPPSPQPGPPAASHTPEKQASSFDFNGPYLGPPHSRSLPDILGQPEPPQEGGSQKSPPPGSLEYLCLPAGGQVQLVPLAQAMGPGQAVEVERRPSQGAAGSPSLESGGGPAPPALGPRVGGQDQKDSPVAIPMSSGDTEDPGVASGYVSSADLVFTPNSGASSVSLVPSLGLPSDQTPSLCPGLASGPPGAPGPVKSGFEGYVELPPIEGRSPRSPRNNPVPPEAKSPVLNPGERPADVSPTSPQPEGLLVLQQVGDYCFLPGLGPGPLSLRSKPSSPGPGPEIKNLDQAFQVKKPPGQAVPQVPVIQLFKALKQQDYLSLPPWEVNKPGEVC

[2] = target: T2, IL-5RaECD (the extracellular domain (ECD) of the human IL-5 receptor a chain) (human, UniProt Q01344 21-342, extensively glycosylated); assay: competition with [125I] IL-5 for binding to IL-5Ra ECD
T2 construct: extracellular domain; also called IL-5RαECD; soluble IL-5Ra
T2 sequence (Q01344 21-342, looked up): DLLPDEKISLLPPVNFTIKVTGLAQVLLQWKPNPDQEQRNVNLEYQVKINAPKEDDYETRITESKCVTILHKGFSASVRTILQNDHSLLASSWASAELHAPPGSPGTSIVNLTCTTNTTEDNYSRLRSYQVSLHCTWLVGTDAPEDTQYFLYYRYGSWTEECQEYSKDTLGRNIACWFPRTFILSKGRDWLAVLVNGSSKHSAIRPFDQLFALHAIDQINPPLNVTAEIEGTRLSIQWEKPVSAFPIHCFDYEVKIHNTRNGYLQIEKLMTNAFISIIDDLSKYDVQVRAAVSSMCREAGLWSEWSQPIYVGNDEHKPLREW
Description: Binding affinities of synthetic peptides for IL-5Ra were measured in a competition binding assay using radio-iodinated IL-5. Immulon 4 (Dynatech) microtiter wells were coated with streptavidin (Sigma) by incubating 100 ul of a 50 ug/ml solution in PBS for 30 min. at 37. The wells were blocked with 200 ul of 1% BSA in PBS for 15 min. at 37, followed by 100 III of biotinylated monoclonal antibody, designated mAb 179, at 5 u. g/ml in PBS. Soluble IL-5Ra was then immobilized in the wells by incubating 100 µl of a solution of soluble receptor harvest diluted 1: 5000 in PBS/0.1% BSA for 1 hr. at 4. After washing away unbound receptor, 50 ul of various concentrations of test peptide diluted in PBS/0.1% BSA were added to the wells, followed by 50 µl of a fixed concentration of [₁₂₅I] IL-5 (Amersham). The binding reactions were incubated at 4 C for 2 hr, then washed with PBS to remove unbound [₁₂₅I] IL-5. Bound [₁₂₅I] IL-5 was determined by gamma counting.
Total binding was defined by the amount of [₁₂₅I] IL-5 bound in the absence of any competitor. Non-specific binding was defined by the amount of [₁₂₅I] IL-5 bound in the presence of 30 nM IL-5. Peptide binding data was analyzed to determine the peptide concentration required to reduce specific [₁₂₅I]

[3] = target: chimeric IL-5Ra/EGFR receptor (human, UniProt Q01344 21-342); assay: cell-based or functional assay
[4] = target: T1, native IL-5R a/β complex on TF-1 cells; assay: cell-based or functional assay; remark: listed apart in the source
[5] = target: T2, IL-5RaECD (the extracellular domain …); assay: scintillation proximity competition assay, 20 pM [125I] IL-5, soluble IL-5Ra on beads; dimer of the printed monomer
Description: Binding affinities of synthetic peptides for IL-5Ra were measured in a scintillation proximity assay (SPA) using radio-iodinated IL-5. Streptavidin coated SPA beads (Amersham) were suspended in IL-5 binding buffer (phosphate buffered saline, 0.1% bovine serum albumin, 0.2% NaN3) at 2 mg beads/ml of buffer. Biotinylated mAb 179 was adsorbed onto the beads at a ratio of 2 ig Ab/mg beads by incubating the beads and antibody with agitation for at least 2 h. at 4. The beads were pelleted at 2500 rpm and resuspended at 2 mg/ml in binding buffer. Soluble IL-5Ra was then adsorbed onto the beads by diluting a solution of soluble receptor harvest 1:500 into the bead suspension and incubating with agitation for 2 hr at 4. The beads were again pelleted at 2500 rpm and resuspended at 2 mg/ml in binding buffer. Competition binding assays were carried out in 100p1 reactions in white polystyrene microtiter plates. These reactions contained 0.05 mg of receptor coated SPA beads, various concentrations of test peptide diluted in binding buffer, and 20 pM [₁₂₅I] IL-5 (Amersham). The plates were incubated at room temperature for 1 hour with agitation, then centrifuged for 5 min at 1500 rpm followed by scintillation counting on a Topcount instrument (Packard). Total binding was defined by the amount of [₁₂₅I] IL-5 bound in the absence of any competitor. Non-specific binding was defined by the amount of [₁₂₅I] IL-5 bound in the presence of 30 nM IL-5. Peptide binding data was analyzed to determine the peptide concentration required to reduce specific [₁₂₅I] IL-5 binding by 50% (IC₅₀). In each instance, the dimer has both intramolecular and intermolecular disulfide linkages as shown generically below: […]

[6] = target: T1, native IL-5R a/β complex on TF-1 cells; assay: competition with [125I] IL-5 binding to TF-1 cells; AF 18748 as competitor

B1: AF 18748 (a dimer of residues 32-50 of SEQ ID NO: 8) (peptide)
peptide: H-TGGGDGYVCVEWARCPTCK-OH
modifications: disulfide 15-18; also: homodimer via interchain disulfide Cys9-Cys9
notes: Synthetic dimer made with orthogonal protecting groups
With B1 the “inhibition of IL-5 induced human eosinophil adhesion to immobilized IgG, IC50” value [1] was 0.348 nM, the IC50 [2] was 0.78 nM and the “EC50 (read off the curve), luciferase reporter activity of IL-5Ra/EGFR Ba/F3 cells” value [3] was roughly 0.03 nM. The “Microphysiometer pIC50 (block of TF-1 cell response to IL-5)” value [4] was 9.6 negative log of the molar IC50, the “SPA pIC50” value [5] was 9.1 negative log of the molar IC50 and the IC50 [6] was 0.4 nM.

— patent US20070173444A1 (AFFYMAX, published 2007)
